Data on 21 molecules can be found in patent publication US20250340652A1 (CHENGDU DI AO PHARMACEUTICAL GROUP, published 2025).

Where a chain is given by its changes, count along the chain named.

B1: A378 (antibody, human IgG4, kappa, V domains shown)
VH: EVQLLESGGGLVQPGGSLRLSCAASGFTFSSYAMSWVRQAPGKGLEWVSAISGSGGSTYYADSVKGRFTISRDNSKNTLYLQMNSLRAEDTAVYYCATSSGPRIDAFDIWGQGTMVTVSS
VL: NIQMTQSPSSLTASVGDRITITCRASQGIRNSLAWYQQKPGTAPKLLVSAASKLQTGVPSRFSGSGSGTDYTLTISSLQTEDFATYYCQQYYGTPPTFGQGTKLEIKR
notes: also called P59380
B2: B67 (antibody, human IgG4, kappa, V domains shown)
VH: QITLKESGPGLVKPSGTLSLTCAVSGGSISSSNWWSWVRQPPGKGLEWIGEIYHSGSTNYNPSLKSRVTISVDKSKNQFSLKLSSVTAADTAVYYCARDDGWRYGSVYYYYMDVWGKGTTVTVSS
VL: DIQLTQSPSSLSASVGDRVTITCRASQSIDDHLNWYQQKPGKVPKLLISSASTLQSGAPSRFSGSGYGTDFTLTISSLQVEDFATYYCQQSYSPPQTFGQGTKVEIKR
notes: also called P59388
B3: B123 (antibody, human IgG4, kappa, V domains shown)
VH: QVQLQQWGAGLLKPSQTLSLTCTVSGGSISSGGYYWSWIRQHPGKGLEWIGYIYYSGSTYYNPSLKSRVTISVDTSKNQFSLKLSSVTAADTAVYYCARWDRVREGGRFSNAFDIWGQGTMVTVSS
VL: NIQLTQSPSSLSASVGDRVTITCRASQGISTYLAWYQQKPGLAPKLLIYGASTLQSGVPSKFSGFGSGRDFTLTISSLQPEDIATYYCQQLNTYPPTFGQGTKLEIKR
notes: also called P59395
B4: B53 (antibody, human IgG4, kappa, V domains shown)
VH: EVQLVETGGGVVQPGRSLRLSCAASGFTFSSYAMHWVRQAPGKGLEWVAVISYDGSNKYYADSVKGRFTISRDNSKNTLYLQMNSLRAEDTAVYYCARNRYGATDYWGQGTLVTVSS
VL: NIQLTQSPSSLSASVGDRVTITCRASQGINSWLAWYQQKPGKAPKLLIYAASTLQSGVPSRFSGSGSGTDFTLTINSLQPEDFATYYCQQLNSFPFTFGPGTKVHIKR
notes: also called P59387
B5: B117 (antibody, human IgG4, kappa, V domains shown)
VH: EVQLLESGGGLVQPGGSLRLSCAASGFTFSSYSMNWVRQAPGKGLEWVSYISSSSSTIYYADSVKGRFTISRDNAKNSLYLQMNSLRDEDTAVYYCARDRTLGYWGQGTLVTVSS
VL: B4 VL with L11V, T22S, N30G, S31R, T53N, N76S, L91A, F96R, H105D
notes: also called P59394
B6: B307 (antibody, human IgG4, kappa, V domains shown)
VH: QLQLQESGPGLVKPSQTLSLTCTVSGGSISSGGYYWSWIRQHPGKGLEWIGYIYYSGSTYYNPSLKSRVTISVDTSKNQFSLKLSSVTAADTAVYYCARMGRIAASNYYGMDVWGQGTTVTVSS
VL: DIQLTQSPSFLSASVGDRVTITCRASQGISSQLAWYQQEPGKAPKLLIYAASTLQSGVPSRFSGSGSGTEFTLTISSLQPEDFATYYCQQVNAYPLTFGPGTKVDIKR
notes: also called P59399
B7: A26 (antibody, human IgG4, kappa, V domains shown)
VH: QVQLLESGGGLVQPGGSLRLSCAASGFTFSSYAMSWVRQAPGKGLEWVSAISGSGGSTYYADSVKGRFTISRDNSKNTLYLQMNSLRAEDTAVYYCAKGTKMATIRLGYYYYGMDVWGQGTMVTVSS
VL: DIVMTQSPLSLPVTPGEPASISCRSSQSLLHSNGRNYLDWYLQKPGQSPQLLIYLGSNRASGVSDRFSASGSGTDFTLQISRVEAEDVGIYYCMQALQTPWTFGQGTKVEVKR
notes: also called P59372
B8: A382 (antibody, human IgG4, kappa, V domains shown)
VH: QVQLVQSGAEVKKPGASVKVSCKASGYTFTSYAMHWVRQAPGQRLEWMGWINAGNGNTKYSQKFQGRVTITRDTSASTAYMELSSLRSEDTAVYYCATSKSVWNFDYWGQGTLVTVSS
VL: EIVLTQSPATLSLSPGERATLSCRASQGISSYLAWYQQKPGQAPRLLIYDASNRATGIPARFSGSGSGTDFTLTISNLEPEDFAVYYCQQRKNWPLTFGGGSKVEIKR
notes: also called P59381
B9: B114 (antibody, human IgG4, kappa, V domains shown)
VH: EVQLLESGGGLVQPGGSLKLSCAASGFTFSGYAMHWVRQAPGKGLEWVAVISYDGSNKYYADSVKGRFTISRDNSKNTLYLQMNSLRAEDTAVYYCARGRGRGVFDYWGQGTLVTVSS
VL: B8 VL with A9G, G28S, I29V, S31K, A51V, N77S, K92R, N93S, S102T, K107R
notes: also called P59393
B10: B24 (antibody, human IgG4, kappa, V domains shown)
VH: EVQLVETGGGLVKPGGSLRLSCAASGFTFSSYSMNWVRQAPGKGLEWVSSISSSSSYIYYADSVKGRFTISRDNAKNSLYLQMNSLRAEDTAVYYCARGRRRDFDYWGQGTLVTVSS
VL: DIQMTQSPSSLPASVGDRVTITCRASQGIGTFLAWYQQHLGKAPKLLISASSTVQRGVPSRFSGSGSGTEFTLTINSLQPEDFATYYCQQLNNYPRTFGQGTKVEIKR
notes: also called P59384
B11: B83 (antibody, V domains shown)
VH: EVQLLESGGGLVQPGGSLRLSCAASGFTFSSYAMSWVRQAPGKGLEWVSAISGSGGRTYYADSVKGRFTISRDNSKNTLYLQMNSLRAEDTAVYYCARVLQYSGTDDLDVWGRGTLVTVSS
VL: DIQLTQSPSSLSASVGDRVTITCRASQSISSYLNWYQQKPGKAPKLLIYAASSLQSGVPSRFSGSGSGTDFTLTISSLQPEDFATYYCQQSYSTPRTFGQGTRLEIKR
notes: also called P59389
B12: A23 (antibody, human IgG4, kappa, V domains shown)
VH: QVQLVQSGAEVKKPGSSVKVSCKASGGTFSSYAISWVRQAPGQGLEWMGGIIPIFGTANYAQKFQGRVTITADESTSTAYMELSSLRSEDTAVYYCARGGGGRGMTSDWGQGTLVTVSS
VL: NIQLTQSPSSLSASVGDRVTITCRASQDISNYLAWFQQKPGKAPKSLIYAASSLQSGVPSRFSGSWSGTDFTLTISSLQPEDIATYYCQQYKRYPFIFGQGTKLEIKR
notes: also called P59371
B13: A8 (antibody, human IgG4, kappa, V domains shown)
VH: QVQLVQSGAEVKKPGSSVKVSCKASGGTFSSYAISWVRQAPGQGLEWMGGIIPIFGTANYAQKFQGRVTMTRDTSTSTVYMELSSLRSEDTAVYYCARDSDFWSGYSSMDVWGQGTTVTVSS
VL: DIVMTQSPLSLPVTLGQPASISCRSSQSLVHSDGNTYLNWFQQRPGQSPRRLIYKVSNRDSGVPDRFSGSGSGTDFTLKISRVEAEDVGVYYCMQGTQWPDTFGQGTKLEIKR
notes: also called P59367
B14: A67 (antibody, human IgG4, kappa, V domains shown)
VH: QVQLVQSGGGVVQPGRSLRLPCAASGFTFSNYAMHWVRQAPGKGLEWVAVISYDGSKKYYADSVKGRFTISRDNSKNTLYLQVNSLRAEDTAVYYCATGYSSPWYGMDVWGQGTTVTVSS
VL: NIQMTQSPSSLSASVGDRITITCRASQSVNSYVNWYQQTPGQAPKLLIYAASSVHNGVPVRFSGSRSGTEFILTISSLQPEDFVTYFCQQSFTSPWTFGQGTKLEMKR
notes: also called P59376
B15: A21 (antibody, human IgG4, kappa, V domains shown)
VH: EVHLVESGPELVRPGASVTLSCKASGYTFTDYEMHWVKQTPVHGLEWIGAIDPETGGTAYNQKFKGKATLTADKSSSTAYMELRSLTSEDSAVYYCTTTYGNYWYFDVWGAGTLVTVSS
VL: DIQLTQSPSSVSASVGDRVTITCRASQNIENWLAWYQQKPGKAPKLLIYATSRLENDVPSRFSGSRSGTEFILTISSLQPEDFATYYCHQANGFPWTFGPGTKVDIKR
notes: also called P59369
B16: B201 (antibody, human IgG4, kappa, V domains shown)
VH: EVQLVESGGGLVQPGGSLRLSCAASGFTFSSYAMHWVRQAPGKGLEWVSAISGSGDSTYYADSVKGRFSISRDNSKNTLYLQMNSLRAEDTAVYYCAKGSRRSGFNLFDYWGQGTLVTVSS
VL: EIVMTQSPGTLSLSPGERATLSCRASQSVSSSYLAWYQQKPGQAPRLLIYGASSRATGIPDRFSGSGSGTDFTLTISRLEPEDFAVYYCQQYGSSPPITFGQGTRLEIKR
notes: also called P59398
B17: B16 (antibody, human IgG4, kappa, V domains shown)
VH: QVQLVQSGGGLVQPGGSLRLSCAASGFTFSSYAMSWVRQAPGKGLEWVSAISGSGGSTYYADSVKGRFTISRDNPKNTLFLQMTSLRSEDTAMYYCARSYGNYFTYWGQGTLVTVSS
VL: EIVLTQSPATLSLSPGERATLSCRASQSVSSYLAWYQQKPGQAPRLLIYDASNRATGIPARFSGSGSGTDFTLTISSLEPEDFAVYYCQQRSNWPPELTFGGGTKVEIKR
notes: also called P59382
B18: B29 (antibody, human IgG4, kappa, V domains shown)
VH: QVQLVQSGAEVKKPGSSVKVSCKASGDTFSSFAISWVRQAPGQGLEWMGTIIPLFTTPNYAQKFQGRVTITADESTRTAYMELSSLRSEDTAVYYCARGPERIAAAGYYYYYGMDVWGQGTTVTVSS
VL: EIVMTQSPGTLSLSPGQRATLSCRASQSVSSSSLAWYQQKPGQAPRLLIHGASSRATGIPDRFSGSGSGTDFTLTISRLEPEDFAVYYCQQYGTSWTFGQGTKVEIKR
notes: also called P59385
B19: A44 (antibody, human IgG4, kappa, V domains shown)
VH: QVQLQESGPGLVKPSQTLSLTCTVSGGSISSGGYYWSWIRQHPGKGLEWIGYIYYSGSTYYNPSLKSRVTISVDTSKNQFSLKLSSVTAADTAVYYCARWGRGGSSWRFDIWGQGTMVTVSS
VL: AIQMTQSPSSLSASVGDRVTITCRASQALTYTLAWYQQKPGKAPRLLIHDASSLESGVPSRFSGSGSGTDFTLTITSLQPEDFATYYCQQFRSYPLTFGGGTKVEIKR
notes: also called P59373
B20: B20 (antibody, human IgG4, kappa, V domains shown)
VH: QVQLLESGPGLVKPSETLSLTCTVSGDSISNYFWSWIRQSPGKGLEWIGYIHYSGTVSYNPSLRSRVTISIDTSKNQFSLKLSSVTAADTAVYYCARRGRIAAAGTGYYYYGMDVWGQGTTVTVSS
VL: EIVMTQSPATLSLSPGERATLSCRASQSVSNYLAWYQQKPGQAPRLLIYGASSRATGIPDRFSGSGSGTDFTLTISRLEPEDFAVYYCQQYGSSLWTFGQGTKVEIKR
notes: also called P59383
B21: B109 (antibody, human IgG4, kappa, V domains shown)
VH: EVQLLESGGGLVKPGGSLRLSCAASGFTFSSYSMNWVRQAPGKGLEWVSSISSSSSYIYYADSVKGRFTISRDNAKNSLYLQMNSLRDGDTAIYYCVRRLWEAPGIGPFDVWGHGTMVTVSS
VL: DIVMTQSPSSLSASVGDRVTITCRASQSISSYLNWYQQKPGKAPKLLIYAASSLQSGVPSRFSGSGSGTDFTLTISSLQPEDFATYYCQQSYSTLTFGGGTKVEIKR
notes: also called P59392

The assay concerns the target T1, CC1H, major antigenic region of PLA2R (human, UniProt Q13018 21-367).
T1 construct: Secreted from CHO-S cells, purified on Ni column; also called CCIh
Kind of assay: indirect ELISA, CC1h coated at 2 ug/mL, anti-human IgG Fc HRP. The method, then: 30 μL of CC1h (2 μg/mL, diluted with 1*PBS) was added to the reaction wells of the ELISA plate, and the plate was sealed and incubated at 4° C. overnight. The plate was washed with PBST for 3 times, and the liquid in the wells was discarded. 5% PBSM was added to block the ELISA plate at room temperature for 2 hours. The plate was washed with PBST for 3 times by adding 30 μL of Abs (diluted with 1*PBS) to each well of the ELISA plate, and the plate was incubated at room temperature for 60 min. The plate was washed with PBST for 3 times, 30 μL of anti-human IgG Fc HRP (diluted with 1% PBSM at a ratio of 1:8000) was added to each well, and incubated at room temperature for 60 min. TMB was added and the reaction was stopped with 2M blocking solution and the OD value was detected at 450 nm. Recombinant Ipilimumab (Sanyou Biopharmaceuticals Co., Ltd.) was used as a negative control. The test results were illustrated in Table 2 as well as FIG. 4 and FIG. 5.
(In general: An ELISA detects its analyte on a solid surface through an enzyme-linked reagent.)
Consider B1, for which the concentration for a half-maximal effect (EC50) (usually the concentration that produces a half-maximal response) was 14.1 ng/mL. B2 registered a concentration giving a half-maximal response (EC50) of 5.02 ng/mL. B3 came in with an EC50 of 8.09 ng/mL. The molecule B4 returned an EC50 of 7.67 ng/mL. This EC50 and that of the molecule before are within 1.5-fold of each other. With B5 the figure was 7.17 ng/mL. Turning to B6, the EC50 worked out at 5.74 ng/mL. The EC50 values of the last two molecules are within 1.5-fold of each other. With B7 the figure was 16 ng/mL; with B8, 13.2 ng/mL. B9 had an EC50 of 6.52 ng/mL. With B10 the figure was 7.03 ng/mL. Then B11, with 7.71 ng/mL; and B12, with 27.6 ng/mL; and B13, with 4.81 ng/mL. B14 registered an EC50 of 6.41 ng/mL.

The molecule B15 yielded an EC50 of 8.49 ng/mL. B16 showed an EC50 of 8.88 ng/mL. On to B17, for which the EC50 is 6.67 ng/mL. With B18 the figure was 3.85 ng/mL.

With B19, the EC50 came to 4.79 ng/mL.

As for B20, the EC50 turned out to be 5.36 ng/mL. The EC50 values of the last two molecules are within 1.5-fold of each other. B21: the EC50 was 6.38 ng/mL.
